In publication PMC12032115:

Molecular target: PTPRF (UniProt P10586)
Test: flow cytometry

Sequence of PTPRF (P10586 30-1907): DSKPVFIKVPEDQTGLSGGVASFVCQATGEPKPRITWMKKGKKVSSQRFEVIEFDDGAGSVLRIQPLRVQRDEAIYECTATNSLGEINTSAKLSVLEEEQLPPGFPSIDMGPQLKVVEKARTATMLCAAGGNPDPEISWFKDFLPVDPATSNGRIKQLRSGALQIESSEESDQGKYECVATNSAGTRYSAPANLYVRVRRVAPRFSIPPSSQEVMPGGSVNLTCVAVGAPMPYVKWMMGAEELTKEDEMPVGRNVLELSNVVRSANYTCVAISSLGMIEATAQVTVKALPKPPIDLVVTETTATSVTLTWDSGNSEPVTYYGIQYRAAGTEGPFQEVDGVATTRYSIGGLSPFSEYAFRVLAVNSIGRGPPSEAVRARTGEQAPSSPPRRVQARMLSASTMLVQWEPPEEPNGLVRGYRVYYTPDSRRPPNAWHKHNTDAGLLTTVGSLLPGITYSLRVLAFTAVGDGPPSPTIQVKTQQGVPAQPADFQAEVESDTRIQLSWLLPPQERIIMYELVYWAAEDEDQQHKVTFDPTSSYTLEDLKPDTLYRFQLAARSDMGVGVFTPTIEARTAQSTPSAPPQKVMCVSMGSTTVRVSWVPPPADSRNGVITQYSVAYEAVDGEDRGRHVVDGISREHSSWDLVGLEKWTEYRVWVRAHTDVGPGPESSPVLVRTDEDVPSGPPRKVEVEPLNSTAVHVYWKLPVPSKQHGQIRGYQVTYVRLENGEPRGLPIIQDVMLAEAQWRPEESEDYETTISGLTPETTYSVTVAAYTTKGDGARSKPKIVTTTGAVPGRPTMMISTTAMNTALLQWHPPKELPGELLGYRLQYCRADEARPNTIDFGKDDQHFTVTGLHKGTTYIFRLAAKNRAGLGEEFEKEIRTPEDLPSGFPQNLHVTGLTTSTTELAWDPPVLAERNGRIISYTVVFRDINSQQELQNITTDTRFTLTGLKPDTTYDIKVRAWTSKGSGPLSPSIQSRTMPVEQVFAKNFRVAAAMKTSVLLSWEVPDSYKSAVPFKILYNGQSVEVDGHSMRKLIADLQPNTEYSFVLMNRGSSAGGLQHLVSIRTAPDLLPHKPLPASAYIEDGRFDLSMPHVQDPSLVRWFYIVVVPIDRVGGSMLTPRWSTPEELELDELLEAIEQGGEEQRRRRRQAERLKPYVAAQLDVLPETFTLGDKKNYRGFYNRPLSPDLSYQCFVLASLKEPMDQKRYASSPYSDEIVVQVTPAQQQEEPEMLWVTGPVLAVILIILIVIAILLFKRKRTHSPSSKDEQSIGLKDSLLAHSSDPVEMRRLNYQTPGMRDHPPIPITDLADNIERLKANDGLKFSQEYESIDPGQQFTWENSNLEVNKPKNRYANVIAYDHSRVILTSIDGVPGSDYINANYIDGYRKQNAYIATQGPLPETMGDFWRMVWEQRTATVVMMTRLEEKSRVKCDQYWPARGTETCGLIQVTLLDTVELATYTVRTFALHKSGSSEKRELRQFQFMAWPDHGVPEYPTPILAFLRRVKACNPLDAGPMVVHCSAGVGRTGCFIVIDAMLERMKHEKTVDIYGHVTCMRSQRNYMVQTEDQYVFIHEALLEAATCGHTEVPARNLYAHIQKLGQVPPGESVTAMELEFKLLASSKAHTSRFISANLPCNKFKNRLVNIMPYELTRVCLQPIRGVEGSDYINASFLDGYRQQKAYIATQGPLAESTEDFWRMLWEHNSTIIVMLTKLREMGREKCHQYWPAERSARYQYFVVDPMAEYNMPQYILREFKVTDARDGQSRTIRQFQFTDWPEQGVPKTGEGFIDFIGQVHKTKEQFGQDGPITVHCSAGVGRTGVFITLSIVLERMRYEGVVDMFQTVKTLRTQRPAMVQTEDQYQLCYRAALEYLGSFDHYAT

With “TGGAGGATATAGGTTGGCTTAGGTGGCTTTGCGTTGGGTGTGGTGCATATCCTCCA [ZAJ4a]” the Kd was 23.3 nM.
